Test results published in patent US11780927B2, “Anti-CD40 antibodies for use in prevention of graft rejection” (NOVARTIS AG, priority 2018, dated 2023).
“And” between values parts separate entries of the source, which are not always exact repeats. Equal entries are not always repeated.

Tests used:
CD20pos B cells = assay: In vitro B cell depletion in human whole blood; format: cell-based; conditions: 72 hours; Rituximab 50 μg/ml, CFZ533 dose titration
Description: (§1) See supplementary material for detailed methods. Briefly, the ability of CFZ533 to mediated depletion of CD20^pos B cells was monitored in human whole blood over a period of three days in comparison to the B cell depleting antibody Rituximab. For CDC, CFZ533 or Rituximab were incubated with RAJI B cells in the presence or absence of rabbit complement and cell lysis was assessed by luminescence.
(§2) B cells numbers were determined based on CD45pos and CD19pos events falling within lymphocyte FSC (forward-scattered light)/SSC (side-scattered light) gate. Results for individual antibody concentrations were calculated as percent remaining B cells with reference to untreated samples and graphed as a function of log-transformed antibody concentration (adjusted to 100% and shown as a dotted line). Data represent the mean and SD of eight independent donors. […] Concentration dependent killing of the Raji cells was analyzed after 2 hours, where the viability of the cells was measured by determination of the ATP concentration in each well using luciferase. Results are presented as isotype-control normalized relative luciferase units (RLU) as a function of log-transformed antibody concentration.

RAJI B cells = assay: Complement-dependent cytotoxicity with rabbit complement; format: cell-based; conditions: 2 hours
Description: as §1, §2

[1] = Dose-range finding embryo-fetal development study; format: in vivo; conditions: rabbits
From the text: Full guideline-conform reproductive toxicity studies have not been conducted thus far. However, a dose-range finding, embryo-fetal development (EFD) study in rabbits has been conducted in order to confirm the rabbit as relevant reproductive toxicology species.

[2] = tested on: T cell-dependent antibody responses (TDAR); assay: Recall T cell-dependent antibody response to KLH; format: in vivo, rhesus monkeys; conditions: at second KLH immunization, single 10 mg/kg i.v.
Description: Monkeys were immunized with KLH three times (the first was about 3 weeks prior to dosing, the second was 2 weeks after mAb1 administration, and the third was after complete wash-out of mAb1). […] Once mAb1 was cleared, all animals mounted a full memory antibody response to the third KLH.
In the PK study, CFZ533 was administered to three animals at calculated single doses of 16.2 (5532), 18.5 (5531) and 20 (5530) mg/kg. Blood was sampled for analyses of CFZ533 serum concentrations, numbers of peripheral T and B lymphocytes, and CD40 occupancy on peripheral B cells by CFZ533. For recall TDAR experiments, animals were immunized with keyhole limpet hemocyanin (KLH) in Alum on study days 8 (priming) and 43 (recall; during CFZ533 treatment) respectively. Serum was sampled one day before and 7, 14 and 21 days after priming and recall immunizations. KLH specific IgM/IgG titers were determined with sandwich ELISA using cynomolgus monkey anti-KLH IgM/IgG reference serum as standard. PK assessment was performed as described above. See supplementary material for additional details on the PK and TDAR experiments.
Arrows below the x-axis highlight primary and secondary KLH immunizations. The timing of a single dose of 10 mg/kg CFZ533 is shown above. The asterisks indicate time points at which anti-KLH IgG and/or CFZ533 levels were measured. FIG. 10B. […]

[3] = target: T1, CD40 on peripheral B cells (Homo sapiens, UniProt P25942); assay: Single-ascending dose study in healthy subjects and rheumatoid arthritis patients; format: in vivo; conditions: for Safety and tolerability: single doses up to 3 mg/kg in healthy volunteers, 10 mg/kg in RA patients
T1 construct: CD40 occupancy on peripheral B cells measuring free CD40 and total CD40; endogenous in cells; host or cells: peripheral / whole blood B cells of healthy subjects and rheumatoid arthritis patients dosed with CFZ533
T1 sequence (P25942 21-277): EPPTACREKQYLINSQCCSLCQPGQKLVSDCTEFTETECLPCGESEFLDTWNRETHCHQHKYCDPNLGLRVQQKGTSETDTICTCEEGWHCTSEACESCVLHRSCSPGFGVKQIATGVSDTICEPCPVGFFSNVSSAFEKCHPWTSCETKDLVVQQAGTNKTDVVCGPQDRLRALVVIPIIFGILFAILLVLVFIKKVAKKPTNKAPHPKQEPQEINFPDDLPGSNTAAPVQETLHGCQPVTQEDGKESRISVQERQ
Description: The safety, tolerability, PK and PD activity of mAb1 are being assessed in an ongoing, randomized, double-blind, placebo-controlled, single-ascending dose study of mAb1 in healthy subjects and patients with rheumatoid arthritis (RA). A total of 48 subjects have been enrolled: 36 healthy subjects who received single doses of mAb1 up to 3 mg/kg IV or S.C., and 12 patients with RA, 6 of whom received single doses of mAb1 at 10 mg/kg IV. […] An investigation of the 30 mg/kg IV dose is ongoing in RA patients. As this study is still ongoing, all clinical data are preliminary in nature and based on interim analyses conducted up to a dose of 10 mg/kg in RA patients. […]

[4] = tested on: transplanted kidney grafts; assay: Allograft biopsies scored by Chronic Allograft Damage Index (CADI); format: in vivo, human
From the text: The quality of the graft was estimated using the Chronic Allograph Damage Index (CADI) (Isoniemi et al. 1992 and 1994), where scores of ≤1 reflects normal renal histology and higher scores correlate with poor long-term outcome (Hayry et al. 2004, Yilmaz et al. 2007, Yilmaz et al. 2003). Pristine renal histology was found in 3 of 5 patients on iscalimab (60%) and in none of the 7 treated with tacrolimus (0%). The average CADI was 1.60±0.60 for CFZ533 (n=5) vs. 5.14±0.80 for tacrolimus (n=7), (mean±SEM, p<0.01 using Student t)
A PoC Study in de Novo Renal Transplantation (CCFZ533X2101/NCT02217410) using CFZ533 was performed. […] Allograft biopsies were performed on a subset of study patients. A pathologist, blinded to therapy, reviewed and scored all biopsy slides using the established Banff criteria and calculated the chronic allograft damage index (CADI, Nickerson P et al., Legendre C et al., Seron D et al.,). A CADI of 1 or less was considered as ‘normal renal histology’. Two patients were excluded from the analysis, since they switched therapy after only 2 months. […] The average CADI at final biopsy was 1.6±0.6 for CFZ533 and 5.1±0.8 for tacrolimus, p<0.01.

PBMCs = conditions: Rhesus

CFZ533: human anti-CD40 IgG1 monoclonal antibody with Fc-silencing N297A mutation; heavy chain SEQ ID NO: 9, light chain SEQ ID NO: 10
B cells eliminated in human whole blood (CD20pos B cells): failed to mediate any cell depletion | Complement-dependent cytotoxicity (CDC) of Raji B cells (RAJI B cells): unable to mediate complement-dependent cytotoxicity | Effects on embryo-fetal development [1]: No effects on embryo-fetal development | CFZ533 concentration required for complete suppression of recall TDAR ([2]; 10 mg/kg): > 40 µg/mL and 30 to 40 µg/mL | CFZ533 concentration required for complete suppression of recall TDAR ([2]; listed as mAb1, 10 mg/kg): > 40 µg/mL | duration of full CD40 occupancy ([3]; 1 mg/kg IV): 1 week | duration of target engagement (full CD40 occupancy on B cells) ([3]; 3 mg/kg IV, healthy subjects): about 4 weeks | duration of target engagement (full CD40 occupancy on B cells) ([3]; 3 mg/kg SC, healthy subjects): about 4 weeks | time of peak plasma concentration ([3]; 3 mg/kg SC, healthy subjects): 3 days | duration of full CD40 occupancy ([3]; 10 mg/kg IV, rheumatoid arthritis patients): 8 weeks | duration of target engagement ([3]; 30 mg/kg IV, rheumatoid arthritis patients): 16 weeks | decrease in total CD40 on peripheral B cells ([3]; healthy subjects): about 50% | ADA incidence ([3]; human, in vivo): 2% | plasma concentration associated with full (≥90%) CD40 occupancy on whole blood B cells ([3]; human, in vivo): 0.3 to 0.4 µg/mL | duration of suppression of anti-KLH responses (full receptor occupancy) ([3]; single dose of 3 mg/kg (IV and SC)): 3-4 weeks | Safety and tolerability [3]: did not reveal major safety concern | Safety and tolerability ([3]; listed as mAb1): safe and well tolerated | average CADI (mean±SEM) ([4]; final biopsy): 1.6±0.6 | patients with normal (pristine) renal histology, CADI of 1 or less ([4]; treated for up to 25 months): 60% | Inhibition of rCD154-induced proliferation (IC50 PBMCs) (PBMCs): 0.03 µg/mL and 0.026 ± 0.017 µg/mL
